Source: the supplement of paper PMC9233669
This sample holds only a part of the variants without activity.

Legend:
biotinyl-Phe-oxazolone = assay: self-aminoacylation, catalytic enhancement (BFO) (fold over background); higher = more active; k-Seq, kA / k0A0; sequences stand for … in GGGAAUGGAUCCACAUCUACGAAUUC…UUCACUGCAGACUUGACGAAGCUG
Summary of the method: (§1)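 Mutagenized RNA pools (0.43 μM; 21-nt variable region) were treated with 2–1250 μM of each biotinyl-aminoacyl-oxazolone. Conditions were 50 μL HEPES/NaCl/KCl/MgCl2/CaCl2 buffer, 5% acetonitrile, pH 6.9–7.0, room temperature, 90 minutes. Catalytic enhancement, the median kA relative to the uncatalyzed rate, was derived from streptavidin capture, qPCR and Illumina sequencing.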

biotinyl-Leu-oxazolone = assay: self-aminoacylation, catalytic enhancement (BLO) (fold over background); higher = more active; k-Seq, kA / k0A0; sequences stand for … in GGGAAUGGAUCCACAUCUACGAAUUC…UUCACUGCAGACUUGACGAAGCUG
Summary of the method: as §1

biotinyl-Ile-oxazolone = assay: self-aminoacylation, catalytic enhancement (BIO) (fold over background); higher = more active; k-Seq, kA / k0A0; sequences stand for … in GGGAAUGGAUCCACAUCUACGAAUUC…UUCACUGCAGACUUGACGAAGCUG
Summary of the method: as §1

biotinyl-Met-oxazolone = assay: self-aminoacylation, catalytic enhancement (BMO) (fold over background); higher = more active; k-Seq, kA / k0A0; sequences stand for … in GGGAAUGGAUCCACAUCUACGAAUUC…UUCACUGCAGACUUGACGAAGCUG
Summary of the method: as §1

biotinyl-Trp-oxazolone = assay: self-aminoacylation, catalytic enhancement (BWO) (fold over background); higher = more active; k-Seq, kA / k0A0; sequences stand for … in GGGAAUGGAUCCACAUCUACGAAUUC…UUCACUGCAGACUUGACGAAGCUG
Summary of the method: as §1

biotinyl-Val-oxazolone = assay: self-aminoacylation, catalytic enhancement (BVO) (fold over background); higher = more active; k-Seq, kA / k0A0; sequences stand for … in GGGAAUGGAUCCACAUCUACGAAUUC…UUCACUGCAGACUUGACGAAGCUG
Summary of the method: as §1

Row | Sequence | self-aminoacylation (biotinyl-Phe-oxazolone) | self-aminoacylation (biotinyl-Leu-oxazolone) | self-aminoacylation (biotinyl-Ile-oxazolone) | self-aminoacylation (biotinyl-Met-oxazolone) | self-aminoacylation (biotinyl-Trp-oxazolone) | self-aminoacylation (biotinyl-Val-oxazolone)
1 | CCACACGUCAACCAAUCGGUC [Fam1B.1 aminoacylation ribozyme variant] | 1.24 | 1.17 | 1.09 | 1.07 | 1.32 | 1.47
2 | CAACACUUCAAGCGAUCGGUC [Fam1B.1 aminoacylation ribozyme variant] | 1.94 | 1.55 | 1.27 | 1.29 | 1.81 | 1.25
3 | AUUCCCCUAGGGCAUCGGGUG [Fam2.2 aminoacylation ribozyme variant] | 42.8 | 12.4 | 7.87 | 10.3 | 10.4 | 6.4
4 | CCACACUUCAAGCACUCGGGC [Fam1B.1 aminoacylation ribozyme variant] | 13.2 | 2.62 | 2.58 | 3.49 | 3.37 | 3.61
5 | CUACUUCUAAUAAUCGGUCUG [Fam1A.1 aminoacylation ribozyme variant] | 1.02 | 0.63 | 0.776 | 0.699 | 0.774 | 0.792
6 | AUUAGCCUGGUCAUCUAGUGA [Fam2.1 aminoacylation ribozyme variant] | 19.2 | 5.06 | 3.39 | 4.79 | 6.32 | 2.98
7 | CCACCUUUCAAGCAAUCGGUC [Fam1B.1 aminoacylation ribozyme variant] | 2.62 | 1.35 | 1.44 | 1.4 | 1.97 | 1.72
8 | CUACACUUCAAGCUAUCGGUC [Fam1B.1 aminoacylation ribozyme variant] | 0.833 | 0.692 | 0.87 | 0.746 | 0.608 | 0.876
9 | CGACUUCAAACAAUCGCUCUG [Fam1A.1 aminoacylation ribozyme variant] | 3.61 | 1.42 | 1.42 | 1.36 | 3.07 | 1.24
10 | AAGUUUGCUAAUAGUCGUGAG [Fam3.1 aminoacylation ribozyme variant] | 2.86 | 1.13 | 1.19 | 1.31 | 2.15 | 1.04
11 | CUACUUCAACCAUUCGGUCUG [Fam1A.1 aminoacylation ribozyme variant] | 0.891 | 1.19 | 1.21 | 1.17 | 1.52 | 1.26
12 | AAGUAUGCUAAUAGUCGGAAG [Fam3.1 aminoacylation ribozyme variant] | 11.1 | 1.42 | 1.64 | 1.72 | 4.24 | 1.29
13 | CUACUUCAAACAAUCGUACUG [Fam1A.1 aminoacylation ribozyme variant] | 1.35 | 0.389 | 0.519 | 0.419 | 0.573 | 0.533
14 | AAGUUUGCUAAUCCUCGCAAG [Fam3.1 aminoacylation ribozyme variant] | 0.881 | 0.725 | 0.706 | 0.628 | 0.599 | 0.733
15 | AUUCACCUAGGGCAUCGGGCG [Fam2.2 aminoacylation ribozyme variant] | 15.7 | 4.74 | 3.54 | 3.47 | 2.7 | 4.35
16 | CUGCUUCAAACAAUAGGUCUG [Fam1A.1 aminoacylation ribozyme variant] | 0.781 | 0.547 | 0.621 | 0.551 | 0.575 | 0.669
17 | AUUUCCCUUGUCAUCGAGUGA [Fam2.1 aminoacylation ribozyme variant] | 46 | 7.73 | 3.62 | 7.14 | 8.99 | 4.17
18 | AUUCAACUAGGUCCUCGGGUG [Fam2.2 aminoacylation ribozyme variant] | 35.7 | 7.66 | 3.44 | 5.22 | 5.55 | 3.32
19 | AAGUAUGCUAAUAGACGCAAG [Fam3.1 aminoacylation ribozyme variant] | 1.04 | 0.725 | 0.823 | 0.824 | 0.756 | 0.637
20 | CCACACUUCAAGCAAUCAGUA [Fam1B.1 aminoacylation ribozyme variant] | 1.17 | 0.899 | 0.983 | 0.861 | 0.842 | 0.842
21 | GUUCACCUAGGUGAUCGGGUG [Fam2.2 aminoacylation ribozyme variant] | 21 | 4.25 | 3.88 | 3.88 | 4.84 | 3.88
22 | AAUCACCUAGGUCAUCGGCUG [Fam2.2 aminoacylation ribozyme variant] | 10.9 | 2.14 | 2.3 | 3.21 | 2.68 | 2.34
23 | AUUUCUCUGGUCAUCGAGUGA [Fam2.1 aminoacylation ribozyme variant] | 20.5 | 5.82 | 3.1 | 5.74 | 7.1 | 3.2
24 | AUUAUCCUGUUCAUCGAGUGA [Fam2.1 aminoacylation ribozyme variant] | 22.6 | 6 | 2.87 | 5.98 | 7.47 | 3
25 | CGACUUCAAACAGUCGGUCUG [Fam1A.1 aminoacylation ribozyme variant] | 10 | 1.63 | 1.83 | 1.71 | 1.98 | 1.84
26 | AAAUUUGCUAAUAGUCGCAGG [Fam3.1 aminoacylation ribozyme variant] | 2.3 | 2.47 | 1.97 | 2.11 | 3.16 | 1.79

Row | Sequence | self-aminoacylation (biotinyl-Phe-oxazolone) | self-aminoacylation (biotinyl-Leu-oxazolone) | self-aminoacylation (biotinyl-Ile-oxazolone) | self-aminoacylation (biotinyl-Met-oxazolone) | self-aminoacylation (biotinyl-Trp-oxazolone) | self-aminoacylation (biotinyl-Val-oxazolone)
27 | CCACACUUAAAGCAAUCUGUC [Fam1B.1 aminoacylation ribozyme variant] | 0.686 | 0.414 | 0.463 | 0.391 | 0.349 | 0.676
28 | CUACUUCAAACGAUCGGUCUG [Fam1A.1 aminoacylation ribozyme variant] | 1.42 | 0.68 | 0.65 | 0.677 | 1.31 | 0.763
29 | AUUACGCUGGUCGUCGAGUGA [Fam2.1 aminoacylation ribozyme variant] | 4.94 | 1.49 | 1.37 | 1.25 | 1.37 | 1.36
30 | CCACACUUCAAGCGAUCGGAC [Fam1B.1 aminoacylation ribozyme variant] | 0.588 | 1.26 | 1.22 | 1.33 | 1.36 | 1.27
31 | AAGUUGGCUGAUAGUCGCAAG [Fam3.1 aminoacylation ribozyme variant] | 2.34 | 1.55 | 1.8 | 1.49 | 1.86 | 1.7
32 | CCCAACUUCAAGCAAUCGGUC [Fam1B.1 aminoacylation ribozyme variant] | 78.4 | 2.34 | 1.56 | 1.49 | 40.9 | 1.74
33 | CUACUUCAAACCAUCGCUCUG [Fam1A.1 aminoacylation ribozyme variant] | 0.394 | 0.915 | 0.878 | 0.762 | 0.532 | 0.982
34 | CUACUUCACACACUCGGUCUG [Fam1A.1 aminoacylation ribozyme variant] | 1.31 | 1.69 | 1.42 | 1.42 | 1.16 | 1.49
35 | CUACACUUCAAGCAAUCAGUC [Fam1B.1 aminoacylation ribozyme variant] | 21 | 0.754 | 0.668 | 0.718 | 6.32 | 0.886
36 | AUUCCCCUAGGUCAUCGGGGG [Fam2.2 aminoacylation ribozyme variant] | 51.6 | 13.3 | 8.54 | 8.39 | 13.6 | 10.2
37 | AAUCACUUAGGUCAUCGGGUG [Fam2.2 aminoacylation ribozyme variant] | 43 | 7.59 | 5.09 | 7.21 | 8.45 | 4.61
38 | AAGUUUGCUAAUAAUCGGAAG [Fam3.1 aminoacylation ribozyme variant] | 0.788 | 0.877 | 0.961 | 0.973 | 0.66 | 0.923
39 | UUACUUGAAACAAUCGGUCUG [Fam1A.1 aminoacylation ribozyme variant] | 1.52 | 1.11 | 1.15 | 1.32 | 0.889 | 1.03
40 | CUACCUCAAACAAUUGGUCUG [Fam1A.1 aminoacylation ribozyme variant] | 0.81 | 0.824 | 1.08 | 1.08 | 0.733 | 1.04
41 | AUUACCCAGGUCUUCGAGUGA [Fam2.1 aminoacylation ribozyme variant] | 39.3 | 6.86 | 3.65 | 5.69 | 8.2 | 3.61
42 | CUACUUCAAACACUCGGUCAG [Fam1A.1 aminoacylation ribozyme variant] | 0.496 | 0.833 | 0.907 | 0.878 | 0.721 | 0.958
43 | CCACACGUCAGGCAAUCGGUC [Fam1B.1 aminoacylation ribozyme variant] | 3.26 | 1.81 | 1.38 | 1.33 | 1.93 | 2.52
44 | ACGCACCUAGGUCAUCGGGUG [Fam2.2 aminoacylation ribozyme variant] | 29 | 3.1 | 3.42 | 4.23 | 4.93 | 3.55
45 | AUUACCCUGGUCACCGAGUGU [Fam2.1 aminoacylation ribozyme variant] | 16.6 | 5.37 | 2.65 | 4.97 | 5.42 | 2.55
46 | AAGGCUGCUAAUAGUCGCAAG [Fam3.1 aminoacylation ribozyme variant] | 20 | 1.64 | 1.73 | 2.04 | 7.19 | 1.38
47 | AUCACCCUGGCCAUCGAGUGA [Fam2.1 aminoacylation ribozyme variant] | 32 | 6.04 | 3.91 | 6.12 | 7.58 | 3.96
48 | AAGUUUCCUAAUAGUCGCUAG [Fam3.1 aminoacylation ribozyme variant] | 2.18 | 1.39 | 1.61 | 1.78 | 1.97 | 1.67
49 | CCACGCUUCAAGCAAUCAGUC [Fam1B.1 aminoacylation ribozyme variant] | 27.4 | 0.886 | 0.745 | 0.811 | 9.22 | 0.83
50 | UCACGCUUCAAGCAAUCGGUC [Fam1B.1 aminoacylation ribozyme variant] | 84.1 | 2.46 | 1.32 | 1.56 | 41.6 | 1.7
51 | GUACUUCAAAAAAUCGGUCUG [Fam1A.1 aminoacylation ribozyme variant] | 7.83 | 1.62 | 1.57 | 1.16 | 7.93 | 1.11
